Laboratory results reported in PMC3126750.
Values belong to the molecule of their own block, whether it stands above or below them.

What was measured:
[1] = target: 26S proteasome from rpn13Δ cells (Rpn11-Flag) (S. cerevisiae) (UniProt P38764); test: affinity purification with mass spectrometry; SILAC: rpn13Δ cells heavy, rpn13Δ rpn1-D517A cells light, mixed 1:1 before lysis; proteasomes purified on anti-Flag resin, eluted in 8 M urea
Ddi1 = Ddi1 (UniProt P40087); test: anti-Flag affinity purification of 26S proteasome, immunoblot densitometry; details: no detergent in binding; normalized to Rpn11FLAG; parent: est. 100; read off a plot
Dsk2 = Dsk2 (UniProt P48510); test: as above; details: no detergent in binding; normalized to Rpn11FLAG; parent: est. 100; read off a plot
Rad23 = Rad23 (UniProt P32628); test: as above; details: no detergent in binding; normalized to Rpn11FLAG; parent: est. 100; read off a plot
Ubp6 = Ubp6 (UniProt P43593); test: as above; details: no detergent in binding; normalized to Rpn11FLAG; parent: est. 100; read off a plot

Sequence of UniProt P48510 (P48510 whole entry, looked up): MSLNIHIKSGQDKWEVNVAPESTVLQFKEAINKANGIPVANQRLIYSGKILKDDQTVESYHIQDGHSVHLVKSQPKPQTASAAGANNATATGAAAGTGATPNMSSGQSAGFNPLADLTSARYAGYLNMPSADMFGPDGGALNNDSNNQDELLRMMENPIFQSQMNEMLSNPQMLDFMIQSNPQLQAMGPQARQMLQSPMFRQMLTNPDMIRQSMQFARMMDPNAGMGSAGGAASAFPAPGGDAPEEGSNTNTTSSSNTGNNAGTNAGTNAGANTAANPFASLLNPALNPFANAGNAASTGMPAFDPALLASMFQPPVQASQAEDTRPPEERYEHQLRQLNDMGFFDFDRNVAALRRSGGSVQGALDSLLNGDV
Sequence of UniProt P38764 (P38764 whole entry, looked up, stated change not applied): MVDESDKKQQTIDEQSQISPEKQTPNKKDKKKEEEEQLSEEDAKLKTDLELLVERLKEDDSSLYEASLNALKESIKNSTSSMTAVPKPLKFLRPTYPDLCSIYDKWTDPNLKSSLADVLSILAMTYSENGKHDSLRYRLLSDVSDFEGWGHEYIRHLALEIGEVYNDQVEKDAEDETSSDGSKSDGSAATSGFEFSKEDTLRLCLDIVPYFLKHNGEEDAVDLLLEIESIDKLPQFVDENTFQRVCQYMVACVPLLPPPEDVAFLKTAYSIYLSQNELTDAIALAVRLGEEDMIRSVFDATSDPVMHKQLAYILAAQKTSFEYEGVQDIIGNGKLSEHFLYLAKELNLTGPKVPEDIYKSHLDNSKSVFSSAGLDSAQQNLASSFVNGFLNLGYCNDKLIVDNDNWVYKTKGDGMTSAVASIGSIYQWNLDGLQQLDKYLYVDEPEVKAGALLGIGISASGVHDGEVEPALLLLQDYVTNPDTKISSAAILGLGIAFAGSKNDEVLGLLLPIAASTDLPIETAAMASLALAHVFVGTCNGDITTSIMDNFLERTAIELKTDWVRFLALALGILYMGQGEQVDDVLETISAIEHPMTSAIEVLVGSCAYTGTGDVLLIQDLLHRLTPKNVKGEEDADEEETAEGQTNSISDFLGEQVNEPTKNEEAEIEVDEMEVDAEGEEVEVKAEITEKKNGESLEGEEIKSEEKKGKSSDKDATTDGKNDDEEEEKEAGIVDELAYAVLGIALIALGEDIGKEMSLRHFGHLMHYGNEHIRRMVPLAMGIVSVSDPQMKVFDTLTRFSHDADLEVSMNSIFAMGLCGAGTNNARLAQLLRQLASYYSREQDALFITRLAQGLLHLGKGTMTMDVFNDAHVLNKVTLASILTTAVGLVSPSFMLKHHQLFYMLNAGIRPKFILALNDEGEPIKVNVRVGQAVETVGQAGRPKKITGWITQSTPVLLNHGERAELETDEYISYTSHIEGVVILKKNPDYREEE
Sequence of UniProt P40087 (P40087 whole entry, looked up): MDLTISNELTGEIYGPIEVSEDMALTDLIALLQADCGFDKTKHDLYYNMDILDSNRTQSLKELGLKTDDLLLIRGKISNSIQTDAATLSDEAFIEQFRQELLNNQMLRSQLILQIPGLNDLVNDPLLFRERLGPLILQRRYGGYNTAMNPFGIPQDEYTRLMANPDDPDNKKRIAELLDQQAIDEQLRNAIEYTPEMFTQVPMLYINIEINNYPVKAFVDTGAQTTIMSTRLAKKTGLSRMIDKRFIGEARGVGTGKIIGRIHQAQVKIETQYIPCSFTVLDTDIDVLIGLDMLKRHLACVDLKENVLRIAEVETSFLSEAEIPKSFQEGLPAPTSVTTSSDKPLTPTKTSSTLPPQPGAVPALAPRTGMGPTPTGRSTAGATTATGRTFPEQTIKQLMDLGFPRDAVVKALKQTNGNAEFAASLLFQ

SILAC H/L ratio (rpn13Δ proteasomes, heavy, over rpn13Δ rpn1-D517A proteasomes, light) [1]: 0.98
Molecule: Ubp6 (from UniProt P43593 1-499) (enzyme)

percent of parent (% Protein Relative to WT) (Ddi1): 80 | percent of parent (% Protein Relative to WT) (Dsk2): 86 | percent of parent (% Protein Relative to WT) (Rad23): 95 | percent of parent (% Protein Relative to WT) (Ubp6): 110
Molecule: 26S proteasome from rpn13Δ cells (Rpn11-Flag) (from UniProt P38764;P43588) K484A

The remaining lines, values behind:

Molecule: 26S proteasome from rpn13Δ cells (Rpn11-Flag) (from UniProt P38764;P43588) D517A
percent of parent (% Protein Relative to WT) (Ddi1): 29 | percent of parent (% Protein Relative to WT) (Dsk2): 61 | percent of parent (% Protein Relative to WT) (Rad23): 76 | percent of parent (% Protein Relative to WT) (Ubp6): 110

B1: Rad23 (natural protein)
chain: MVSLTFKNFKKEKVPLDLEPSNTILETKTKLAQSISCEESQIKLIYSGKVLQDSKTVSECGLKDGDQVVFMVSQKKSTKTKVTEPPIAPESATTPGRENSTEASPSTDASAAPAATAPEGSQPQEEQTATTERTESASTPGFVVGTERNETIERIMEMGYQREEVERALRAAFNNPDRAVEYLLMGIPENLRQPEPQQQTAAAAEQPSTAATTAEQPAEDDLFAQAAQGGNASSGALGTTGGATDAAQGGPPGSIGLTVEDLLSLRQVVSGNPEALAPLLENISARYPQLREHIMANPEVFVSMLLEAVGDNMQDVMEGADDMVEGEDIEVTGEAAAAGLGQGEGEGSFQVDYTPEDDQAISRLCELGFERDLVIQVYFACDKNEEAAANILFSDHAD
SILAC H/L ratio (rpn13Δ proteasomes, heavy, over rpn13Δ rpn1-D517A proteasomes, light) [1]: 0.9
